The numbers were not newly measured in patent publication EP0259891B1, “[Leu 13] motilin, DNAs coding for same and methods for producing same” (KYOWA HAKKO KOGYO CO., LTD., priority 1986, dated 1995), which cites them from elsewhere.

For this data set the following is noted: 13th amino acid Met oxidised; M. Fujino et al., Chem. Pharm. Bull., 26, 101 (1978).

“motilin: physiologically active peptide occurring in the mammalian blood, composed of 22 amino acid residues, 13th amino acid Met”: the “motilin activity after oxidation of Met to the sulfoxide form” value was “decreased motilin activity”.
